Source: patent US20260184814A1, “BROADLY NE[…] INFLUENZA NEURAMINIDASE” (priority 2022, published 2026)
Where two headings read alike, the source gives them in different places.

What was measured:
[1] = target: human FcγRIIIa (F158 allele) (human) (UniProt P08637); assay: MSD [cont'd]
human FcγRIIb (human) [2] = target: human FcγRIIb (human) (UniProt P31994); assay: MSD [cont'd]
[3] = target: human FcγRIIa (R131 allele) (human) (UniProt P12318); assay: MSD [cont'd]
human C1q (human) [4] = target: human C1q (human) (UniProt P02745); assay: MSD [cont'd]
[5] = target: human FcγRIIa (H131 allele) (human) (UniProt P12318); assay: MSD [cont'd]
[6] = target: human FcγRIIIa (V158 allele) (human) (UniProt P08637); assay: MSD [cont'd]
human FcRn (human) [7] = target: human FcRn (human) (UniProt P55899); assay: MSD [cont'd]
[8] = target: human FcγRIIIa (F158 allele) (human) (UniProt P08637); assay: MSD [cont'd]; remark: listed apart in the source
human FcγRIIb (human) [9] = target: human FcγRIIb (human) (UniProt P31994); assay: MSD [cont'd]; remark: listed apart in the source
[10] = target: human FcγRIIa (R131 allele) (human) (UniProt P12318); assay: MSD [cont'd]; remark: listed apart in the source
[11] = target: human FcγRIIa (H131 allele) (human) (UniProt P12318); assay: MSD [cont'd]; remark: listed apart in the source
human FcγRIIIb (human) [12] = target: human FcγRIIIb (human) (UniProt O75015); assay: MSD [cont'd]
[13] = target: human FcγRIIIa (V158 allele) (human) (UniProt P08637); assay: MSD [cont'd]; remark: listed apart in the source
human FcRn (human) [14] = target: human FcRn (human) (UniProt P55899); assay: MSD [cont'd]; remark: listed apart in the source
[15] = target: human FcγRIIIa (F158 allele) (human) (UniProt P08637)
[16] = target: human FcγRIIIa (V158 allele) (human) (UniProt P08637)
human C1q (human) [17] = target: human C1q (human) (UniProt P02745); assay: MSD [cont'd]; remark: listed apart in the source
[18] = target: human FcγRIIIa (F158 allele) (human) (UniProt P08637); remark: listed apart in the source
human FcγRIIb (human) [19] = target: human FcγRIIb (human) (UniProt P31994)
[20] = target: human FcγRIIa (H131 allele) (human) (UniProt P12318)
[21] = target: human FcγRIIIa (V158 allele) (human) (UniProt P08637); remark: listed apart in the source
human FcγRIIb (human) [22] = target: human FcγRIIb (human) (UniProt P31994); assay: MSD
[23] = target: human FcγRIIa (R131 allele) (human) (UniProt P12318); assay: MSD
[24] = target: human FcγRIIa (H131 allele) (human) (UniProt P12318); assay: MSD
human FcRn (human) [25] = target: human FcRn (human) (UniProt P55899); assay: MSD, pH 6 [cont'd]
human FcRn (human) [26] = target: human FcRn (human) (UniProt P55899); assay: MSD electrochemiluminescence binding assay; column FcRn
[27] = target: human FcγRIIa (R131 allele) (human) (UniProt P12318); assay: MSD electrochemiluminescence binding assay; column IIA_R
[28] = target: human FcγRIIIa (V158 allele) (human) (UniProt P08637); assay: MSD electrochemiluminescence binding assay; column IIIA_V
human FcγRIIIb (human) [29] = target: human FcγRIIIb (human) (UniProt O75015); assay: MSD electrochemiluminescence binding assay; column IIIB
human FcγRIIb (human) [30] = target: human FcγRIIb (human) (UniProt P31994); assay: MSD electrochemiluminescence binding assay; column IIB
[31] = target: human FcγRIIIa (F158 allele) (human) (UniProt P08637); assay: MSD
human C1q (human) [32] = target: human C1q (human) (UniProt P02745); assay: MSD
human FcγRIIIb (human) [33] = target: human FcγRIIIb (human) (UniProt O75015); assay: MSD
[34] = target: human FcγRIIIa (V158 allele) (human) (UniProt P08637); assay: MSD
human FcRn (human) [35] = target: human FcRn (human) (UniProt P55899); assay: MSD
[36] = target: human FcγRIIIa (F158 allele) (human) (UniProt P08637); remark: listed apart in the source
human FcγRIIb (human) [37] = target: human FcγRIIb (human) (UniProt P31994); remark: listed apart in the source
[38] = target: human FcγRIIa (H131 allele) (human) (UniProt P12318); remark: listed apart in the source
[39] = target: human FcγRIIIa (V158 allele) (human) (UniProt P08637); remark: listed apart in the source
[40] = target: human FcγRIIIa (F158 allele) (human) (UniProt P08637); assay: MSD electrochemiluminescence binding assay; column IIIA_F
[41] = target: human FcγRIIa (H131 allele) (human) (UniProt P12318); assay: MSD electrochemiluminescence binding assay; column IIA_H

human FcγRIIIb (human), sequence (O75015 17-200 limits assumed): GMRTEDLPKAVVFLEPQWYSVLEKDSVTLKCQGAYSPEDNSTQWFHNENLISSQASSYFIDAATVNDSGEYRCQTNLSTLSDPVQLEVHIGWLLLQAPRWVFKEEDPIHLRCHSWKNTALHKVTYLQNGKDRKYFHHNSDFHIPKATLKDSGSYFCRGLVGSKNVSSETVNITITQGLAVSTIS
human FcγRIIa (H131 allele) (human), sequence (P12318 34-218 limits assumed): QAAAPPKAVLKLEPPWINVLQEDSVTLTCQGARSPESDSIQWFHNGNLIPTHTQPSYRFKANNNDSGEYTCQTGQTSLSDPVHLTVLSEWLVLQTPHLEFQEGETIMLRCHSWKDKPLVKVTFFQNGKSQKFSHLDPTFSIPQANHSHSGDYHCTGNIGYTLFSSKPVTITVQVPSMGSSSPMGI
human C1q (human), sequence (P02745 23-245 limits assumed, chain 1 of 3): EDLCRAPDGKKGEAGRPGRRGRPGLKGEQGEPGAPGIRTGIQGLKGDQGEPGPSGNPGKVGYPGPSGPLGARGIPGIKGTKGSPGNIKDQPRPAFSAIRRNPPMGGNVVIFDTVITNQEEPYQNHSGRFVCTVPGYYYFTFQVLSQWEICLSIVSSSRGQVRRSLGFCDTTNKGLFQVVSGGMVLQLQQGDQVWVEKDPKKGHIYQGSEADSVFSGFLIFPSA
human C1q (human), sequence (P02746 28-253 limits assumed, chain 2 of 3, further chain): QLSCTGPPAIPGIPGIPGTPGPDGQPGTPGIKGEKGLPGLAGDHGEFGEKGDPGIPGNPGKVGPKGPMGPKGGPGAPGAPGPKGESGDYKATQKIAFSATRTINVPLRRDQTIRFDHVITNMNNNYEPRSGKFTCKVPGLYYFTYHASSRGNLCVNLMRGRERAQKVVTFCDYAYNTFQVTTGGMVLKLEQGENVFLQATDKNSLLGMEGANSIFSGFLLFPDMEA
human C1q (human), sequence (P02747 29-245 limits assumed, chain 3 of 3, further chain): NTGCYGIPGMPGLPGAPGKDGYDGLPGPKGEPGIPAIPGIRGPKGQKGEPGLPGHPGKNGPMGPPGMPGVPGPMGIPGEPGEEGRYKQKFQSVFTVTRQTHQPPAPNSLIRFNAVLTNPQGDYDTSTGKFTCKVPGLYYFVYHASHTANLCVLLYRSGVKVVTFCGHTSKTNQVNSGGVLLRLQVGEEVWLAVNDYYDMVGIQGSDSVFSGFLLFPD
human FcγRIIb (human), sequence (P31994 43-217 limits assumed): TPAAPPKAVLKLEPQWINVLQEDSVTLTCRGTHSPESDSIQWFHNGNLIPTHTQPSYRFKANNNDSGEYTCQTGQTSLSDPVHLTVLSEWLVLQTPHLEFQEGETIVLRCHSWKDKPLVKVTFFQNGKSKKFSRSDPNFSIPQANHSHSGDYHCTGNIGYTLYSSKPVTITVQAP
human FcγRIIIa (V158 allele) (human), sequence (P08637 17-208 F176V limits assumed): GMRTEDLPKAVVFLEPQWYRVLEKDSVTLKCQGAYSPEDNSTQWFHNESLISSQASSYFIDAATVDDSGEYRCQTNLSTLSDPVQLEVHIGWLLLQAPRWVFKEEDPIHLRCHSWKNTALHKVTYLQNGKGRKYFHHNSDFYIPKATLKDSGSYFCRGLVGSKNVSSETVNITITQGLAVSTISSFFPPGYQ
human FcγRIIa (R131 allele) (human), sequence (P12318 34-218 H167R limits assumed): as the sequence (P12318 34-218 limits assumed) above, with H134R counted along it
human FcRn (human), sequence (P55899 24-297 limits assumed, chain 1 of 2): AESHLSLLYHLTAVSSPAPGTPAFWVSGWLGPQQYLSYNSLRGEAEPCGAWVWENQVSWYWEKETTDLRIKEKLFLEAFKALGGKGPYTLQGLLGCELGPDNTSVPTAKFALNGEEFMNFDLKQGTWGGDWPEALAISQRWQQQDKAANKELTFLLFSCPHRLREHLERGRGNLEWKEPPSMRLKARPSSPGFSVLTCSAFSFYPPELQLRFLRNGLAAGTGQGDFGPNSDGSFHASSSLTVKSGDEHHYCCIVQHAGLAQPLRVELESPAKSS
human FcRn (human), sequence (chain, as listed by the source limits assumed, chain 2 of 2): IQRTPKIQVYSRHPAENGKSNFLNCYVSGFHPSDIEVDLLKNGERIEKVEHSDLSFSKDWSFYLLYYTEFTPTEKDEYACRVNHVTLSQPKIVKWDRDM
human FcγRIIIa (F158 allele) (human), sequence (P08637 17-208 limits assumed): as the sequence (P08637 17-208 F176V limits assumed) above, with V160F counted along it

## IgG1 antibody with Fc variant F243L_G446E_P396L_S267E
[1]
  fold-change vs wt: 0.63 fold
Human FcγRIIb (human) [2]
  fold-change vs wt: 15.7 fold
[3]
  fold-change vs wt: 31.1 fold
Human C1q (human) [4]
  fold-change vs wt: 4.17 fold
[5]
  fold-change vs wt: 0.77 fold
[6]
  fold-change vs wt: 0.24 fold
Human FcRn (human) [7]
  fold-change vs wt: 1.05 fold

## R292P_Y300L-afuc (antibody)
[8]
  fold to wt-fucose: 26.5 fold
Human FcγRIIb (human) [9]
  fold to wt-fucose: 1.05 fold
[10]
  fold to wt-fucose: 0.72 fold
[11]
  fold to wt-fucose: 1.27 fold
Human FcγRIIIb (human) [12]
  fold to wt-fucose: 4.53 fold
[13]
  fold to wt-fucose: 16.1 fold
Human FcRn (human) [14]
  fold to wt-fucose: 0.82 fold
[15]
  FcγR reporter signaling, fold to wt-fucose [cont'd]: 10.6 fold
[16]
  FcγR reporter signaling, fold to wt-fucose [cont'd]: 4.52 fold

## IgG1 antibody with Fc variant S239D_H268E_G236A
[8]
  fold-change vs wt: 16.3 fold
Human FcγRIIb (human) [9]
  fold-change vs wt: 5.09 fold
[10]
  fold-change vs wt: 53.5 fold
Human C1q (human) [17]
  fold-change vs wt: 0.4 fold
[11]
  fold-change vs wt: 11.7 fold
Human FcγRIIIb (human) [12]
  fold-change vs wt: 3.04 fold
[13]
  fold-change vs wt: 7.9 fold
Human FcRn (human) [14]
  fold-change vs wt: 0.91 fold
[18]
  FcγR reporter signaling, fold-change vs wt [cont'd]: 12.8 fold
Human FcγRIIb (human) [19]
  FcγR reporter signaling, fold-change vs wt [cont'd]: 1.8 fold
[20]
  FcγR reporter signaling, fold-change vs wt [cont'd]: 2.15 fold
[21]
  FcγR reporter signaling, fold-change vs wt [cont'd]: 5.22 fold

## IgG1 antibody with Fc variant R292P_Y300L
Human C1q (human) [4]
  fold-change vs wt: 2.07 fold
[8]
  fold-change to WT Fc: 5.29 fold
  fold-change vs wt: 5.29 fold
Human FcγRIIb (human) [9]
  fold-change vs wt: 0.9 fold
[10]
  fold-change vs wt: 0.68 fold
Human C1q (human) [17]
  fold-change to WT Fc: 2.09 fold
  fold-change vs wt: 2.09 fold
[11]
  fold-change vs wt: 1.4 fold
Human FcγRIIIb (human) [12]
  fold-change vs wt: 1.72 fold
[13]
  fold-change to WT Fc: 4.85 fold
  fold-change vs wt: 4.85 fold
Human FcRn (human) [14]
  fold-change vs wt: 0.88 fold
Human FcγRIIb (human) [22]
  fold-change to WT Fc: 0.9 fold
[23]
  fold-change to WT Fc: 0.682 fold
[24]
  fold-change to WT Fc: 1.4 fold
Human FcRn (human) [25]
  fold-change to WT Fc: 0.879 fold
[18]
  FcγR reporter signaling, fold-change vs wt [cont'd]: 7.42 fold
Human FcγRIIb (human) [19]
  FcγR reporter signaling, fold-change vs wt [cont'd]: 0.72 fold
[20]
  FcγR reporter signaling, fold-change vs wt [cont'd]: 0.98 fold
[21]
  FcγR reporter signaling, fold-change vs wt [cont'd]: 3.66 fold

## IgG1 antibody with Fc variant E345K_G236S_L235Y_S267E
[1]
  fold-change vs wt: 0.29 fold
Human FcγRIIb (human) [2]
  fold-change vs wt: 1.71 fold
[3]
  fold-change vs wt: 9.22 fold
Human C1q (human) [4]
  fold-change vs wt: 2.35 fold
[5]
  fold-change vs wt: 0.53 fold
[6]
  fold-change vs wt: 0.05 fold
Human FcRn (human) [7]
  fold-change vs wt: 0.9 fold

## IgG1 antibody with Fc variant G236A_L328V_Q295E
Human FcRn (human) [26]
  fold-change in binding vs wild-type IgG1: 1.07
[27]
  fold-change in binding vs wild-type IgG1: 10.7
[28]
  fold-change in binding vs wild-type IgG1: 0.36
Human FcγRIIIb (human) [29]
  fold-change in binding vs wild-type IgG1: 0.71
Human C1q (human) [17]
  fold-change vs wt: 0.07 fold
Human FcRn (human) [14]
  fold-change vs wt: 1.08 fold
Human FcγRIIb (human) [30]
  fold-change in binding vs wild-type IgG1: 0.81
[31]
  fold-change vs FY1 rIgG1m3: 0.5 fold
  fold-change vs wt: 0.52 fold
Human FcγRIIb (human) [22]
  fold-change vs FY1 rIgG1m3: 0.9 fold
  fold-change vs wt: 0.86 fold
[23]
  fold-change vs FY1 rIgG1m3: 10.8 fold
  fold-change vs wt: 10.8 fold
Human C1q (human) [32]
  fold-change vs FY1 rIgG1m3: 0.07 fold
[24]
  fold-change vs FY1 rIgG1m3: 7.8 fold
  fold-change vs wt: 7.8 fold
Human FcγRIIIb (human) [33]
  fold-change vs FY1 rIgG1m3: 0.7 fold
  fold-change vs wt: 0.7 fold
[34]
  fold-change vs FY1 rIgG1m3: 0.4 fold
  fold-change vs wt: 0.36 fold
Human FcRn (human) [35]
  fold-change vs FY1 rIgG1m3: 1.1 fold
[36]
  FcγR reporter signaling, fold-change vs wt [cont'd]: 0.02 fold
Human FcγRIIb (human) [37]
  FcγR reporter signaling, fold-change vs wt [cont'd]: 0.66 fold
[38]
  FcγR reporter signaling, fold-change vs wt [cont'd]: 2.18 fold
[39]
  FcγR reporter signaling, fold-change vs wt [cont'd]: 0.03 fold
[40]
  fold-change in binding vs wild-type IgG1: 0.52
[41]
  fold-change in binding vs wild-type IgG1: 7.76

## G236A_S239D_A330L_I332E (antibody)
[8]
  fold-change vs wt: 55.1 fold
Human FcγRIIb (human) [9]
  fold-change vs wt: 1.94 fold
[10]
  fold-change vs wt: 9.68 fold
Human C1q (human) [17]
  fold-change vs wt: 0 fold
[11]
  fold-change vs wt: 5.15 fold
Human FcγRIIIb (human) [12]
  fold-change vs wt: 14 fold
[13]
  fold-change vs wt: 8.03 fold
Human FcRn (human) [14]
  fold-change vs wt: 1.02 fold
[18]
  FcγR reporter signaling, fold-change vs wt [cont'd]: 19.4 fold
Human FcγRIIb (human) [19]
  FcγR reporter signaling, fold-change vs wt [cont'd]: 1.2 fold
[20]
  FcγR reporter signaling, fold-change vs wt [cont'd]: 2.47 fold
[21]
  FcγR reporter signaling, fold-change vs wt [cont'd]: 6.02 fold
